Test results reported in patent US20110300113A1, “Death Receptor CD95 Controls Neurogenesis of Adult Neural Stem Cells in Vivo and in Vitro” (DEUTSCHES KREBSFORSCHUNGSZENTRUM, priority 2006, published 2011).

System: mouse adult SVZ NSCs
Assay: Gene expression by quantitative real-time PCR in adult SVZ NSCs
Format: cell-based
Details: 48 h after stimulation
Method: Real-time Quantitative PCR. 24 h cells after plating cells were stimulated with 1 activation unit of CD95L-T4. After 48 h RNA was isolated using the RNeasy Mini Kit (Qiagen). Real-time quantitative PCR was carried out using Sybr Green core kits (Eurogentec) and Uracil-N-glycosylase (Eurogentec). For determining CD95L induction after global ischemia, the hippocampi were dissected out and stored in RNAlater reagent (Ambion). RNA was extracted using the RNeasy Mini Kit (Qiagen). Real-time quantitative PCR was carried out using Sybr Green core kits (Eurogentec) and Uracil-N-glycosylase (Eurogentec). Primers used for quantitative real-time PCR were designed using Primer 3 software (http://fokker.wi.mit.edu/cgi-bin/primer3/primer3_www.cgi).

B1: CD95L: the ligand for CD95 (APO-1/Fas) (protein, listed as Homo sapiens)
chain: MQQPFNYPYPQIYWVDSSASSPWAPPGTVLPCPTSVPRRPGQRRPPPPPPPPPLPPPPPPPPLPPLPLPPLKKRGNHSTGLCLLVMFFMVLVALVGLGLGMFQLFHLQKELAELRESTSQMHTASSLEKQIGHPSPPPEKKELRKVAHLTGKSNSRSMPLEWEDTYGIVLLSGVKYKKGGLVINETGLYFVYSKVYFRGQSCNNLPLSHKVYMRNSKYPQDLVMMEGKMMSYCTTGQMWARSSYLGAVFNLTSADHLYVNVSELSLVNFEESQTFFGLYKL
modifications: CHAIN (1)..(281) This feature is the amino acid sequence for CD95L protein. CD95L is a ligand for CD95. CD95 is APO-1/Fas and a member of the tumor necrosis factor receptor superfamily.
Neurogenin (Ngn1) expression: much higher
